According to patent US20220135684A1 (Xencor, published 2022):
Each block holds one binder with its values, some of them ahead of it.

Tests used:
[1] = biological target: T1, cell-surface CD28 on human PBMCs (human, UniProt P10747 19-220); assay: flow cytometry on human PBMCs, anti-human Fc secondary
T1 construct: whole, on cells

[2] = biological target: T2, human CD28 (human, UniProt P10747 19-152); assay: Octet (BLI), scFv arm in the bsAb; value told in the text
T2 construct: also called Cluster of Differentiation 28; Tp44

[3] = biological target: T2, human CD28; assay: Octet (BLI), scFv arm in a bsAb; value told in the text
[4] = biological target: T3, human PDL1 antigen (human, UniProt Q9NZQ7 19-238); assay: Biacore (SPR), Fab arm in the bsAb; value told in the text
T3 construct: they are put here

B1: XENP28428 (antibody, V domains shown)
VH: EVQLLESGGGLVQPGGSLRLSCAASGFTFSSYAMSWVRQAPGKGLEWVSTISGSGDSTYYADSVKGRFTISRDNSKNTLYLQMNSLRAEDTAVYYCAKSGPGLRQVGFDYWGQGTLVTVSS
VL: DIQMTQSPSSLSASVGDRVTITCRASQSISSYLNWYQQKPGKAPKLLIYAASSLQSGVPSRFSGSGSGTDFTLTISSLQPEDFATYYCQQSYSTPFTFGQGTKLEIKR
notes: Bivalent mAb, IgG1 backbone with E233P/L234V/L235A/G236del/S267K ablation variant; also called anti-CD28 mAb based on clone 1A7; parental αCD28 mAb 1A7; copies: 2 + 2
- binding result [1]: binds

B3: XENP37261 (bispecific antibody)
heavy: EVQLLESGGGLVQPGGSLRLSCAASGFTFSSYDMSWVRQAPGKRLEWVSTISSGGSFTHYPDSVKGRFTISRDNSKNTLYLQMNSLRAEDTAVYYCVRRSGDWYFDVWGAGTTVTVSSASTKGPSVFPLAPSSKSTSGGTAALGCLVKDYFPEPVTVSWNSGALTSGVHTFPAVLQSSGLYSLSSVVTVPSSSLGTQTYICNVNHKPSDTKVDKKVEPKSCDKTHTCPPCPAPPVAGPSVFLFPPKPKDTLMISRTPEVTCVVVDVKHEDPEVKFNWYVDGVEVHNAKTKPREEEYNSTYRVVSVLTVLHQDWLNGKEYKCKVSNKALPAPIEKTISKAKGQPREPQVYTLPPSREEMTKNQVSLTCDVSGFYPSDIAVEWESDGQPENNYKTTPPVLDSDGSFFLYSKLTVDKSRWEQGDVFSCSVMHEALHNHYTQKSLSLSPGK
scFv-Fc: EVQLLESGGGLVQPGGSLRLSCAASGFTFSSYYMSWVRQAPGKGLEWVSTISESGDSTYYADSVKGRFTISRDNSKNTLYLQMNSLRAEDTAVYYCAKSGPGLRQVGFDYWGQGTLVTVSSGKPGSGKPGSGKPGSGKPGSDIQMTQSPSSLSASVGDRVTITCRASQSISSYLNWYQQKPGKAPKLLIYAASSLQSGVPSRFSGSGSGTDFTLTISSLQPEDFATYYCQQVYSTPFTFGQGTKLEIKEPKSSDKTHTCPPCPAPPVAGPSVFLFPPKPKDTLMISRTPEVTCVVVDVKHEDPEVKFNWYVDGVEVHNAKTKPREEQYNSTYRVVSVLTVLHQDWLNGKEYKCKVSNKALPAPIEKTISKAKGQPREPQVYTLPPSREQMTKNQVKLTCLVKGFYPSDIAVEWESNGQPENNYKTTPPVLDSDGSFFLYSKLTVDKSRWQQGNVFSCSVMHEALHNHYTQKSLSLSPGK
light: EIVLTQSPGTLSLSPGERATLSCRVSSSISSSNLHWYQQKPGQSPRPLIYGTSNLASGVPVRFSGSGSGTDYTLTISRLEPEDFAVYYCQQWSSYPLYTFGGGTKVEIKRTVAAPSVFIFPPSDEQLKSGTASVVCLLNNFYPREAKVQWKVDNALQSGNSQESVTEQDSKDSTYSLSSTLTLSKADYEKHKVYACEVTHQGLSSPVTKSFNRGEC
notes: 1+1 Fab-scFv-Fc format; also called αPDL1×αCD28 bsAb; 1A7_H1.14_L1.71
- Kd [2]: 36 nM
- Kd [3]: 37 nM

Now from value to binder:

- binding result [1]: binds
B2: XENP27181 (antibody, human IgG1, kappa, V domains shown)
VH: QVQLQESGPGLVKPSETLSLTCAVSGFSLTSYGVHWIRQPPGKGLEWLGVIWPGGGTNFNSALMSRLTISEDTSKNQVSLKLSSVTAADTAVYYCARDRAYGNYLYAMDYWGQGTLVTVSS
VL: DIQMTQSPSSLSASVGDRVTITCRASESVEYYVTSLMQWYQQKPGKAPKLLIYAASNVDSGVPSRFSGSGSGTDFTLTISSLQPEDIATYYCQQSRKVPFTFGGGTKVEIKR
notes: Bivalent mAb, IgG1 backbone with E233P/L234V/L235A/G236del/S267K ablation variant; also called HuTN228; prior art anti-CD28 mAb HuTN228; copies: 2 + 2

- Kd [4]: 0.17 nM
B4: XENP38514 (bispecific antibody)
heavy: EVQLLESGGGLVQPGGSLRLSCAASGFTFSVYDMSWVRQAPGKRLEWVSTISSGGSFTHYPDSVKGRFTISRDNSKNTLYLQMNSLRAEDTAVYYCVRRSLDWYFDVWGAGTTVTVSSASTKGPSVFPLAPSSKSTSGGTAALGCLVKDYFPEPVTVSWNSGALTSGVHTFPAVLQSSGLYSLSSVVTVPSSSLGTQTYICNVNHKPSDTKVDKKVEPKSCDKTHTCPPCPAPPVAGPSVFLFPPKPKDTLMISRTPEVTCVVVDVKHEDPEVKFNWYVDGVEVHNAKTKPREEEYNSTYRVVSVLTVLHQDWLNGKEYKCKVSNKALPAPIEKTISKAKGQPREPQVYTLPPSREEMTKNQVSLTCDVSGFYPSDIAVEWESDGQPENNYKTTPPVLDSDGSFFLYSKLTVDKSRWEQGDVFSCSVMHEALHNHYTQKSLSLSPGK
scFv-Fc: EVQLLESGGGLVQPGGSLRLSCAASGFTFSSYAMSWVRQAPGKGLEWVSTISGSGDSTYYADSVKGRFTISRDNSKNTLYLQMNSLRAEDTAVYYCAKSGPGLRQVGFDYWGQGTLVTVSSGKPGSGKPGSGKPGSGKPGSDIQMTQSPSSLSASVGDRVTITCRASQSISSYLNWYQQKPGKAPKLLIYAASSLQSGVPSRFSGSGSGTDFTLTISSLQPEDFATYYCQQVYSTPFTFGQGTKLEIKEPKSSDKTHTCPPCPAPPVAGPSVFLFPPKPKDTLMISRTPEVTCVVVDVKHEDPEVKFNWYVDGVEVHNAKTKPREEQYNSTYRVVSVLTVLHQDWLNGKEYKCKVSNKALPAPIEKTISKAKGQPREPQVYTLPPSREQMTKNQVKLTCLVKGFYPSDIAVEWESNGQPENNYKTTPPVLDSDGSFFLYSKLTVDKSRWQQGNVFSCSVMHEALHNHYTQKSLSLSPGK
light: EIVLTQSPGTLSLSPGERATLSCRVSSSIQSTNLHWYQQKPGQSPRPLIYGTSVLATGVPVRFSGSGSGTDYTLTISRLEPEDFAVYYCQQWSSYPLYTFGGGTKVEIKRTVAAPSVFIFPPSDEQLKSGTASVVCLLNNFYPREAKVQWKVDNALQSGNSQESVTEQDSKDSTYSLSSTLTLSKADYEKHKVYACEVTHQGLSSPVTKSFNRGEC
